In patent US20240041976A1, “COMPOSITION AND USE” (priority 2020, published 2024):
Where two headings read alike, the source gives them in different places.

Legend:
Assay type in all cases: cell-based, Staphylococcus aureus
S. aureus Newman biofilm = assay: Biofilm-oriented antimicrobial test (BOAT), MIC50 in biofilms; settings: for MIC50: individual component
Method: (§1) Synergistic interactions between antimicrobials were determined using the fractional inhibition concentration (FIC). The FIC values were calculated as follows: the sum of the FIC =FICa+FICb+FICc, where the FICa means MIC of A in combination/MIC of A alone, FICb means MIC of B in combination/MIC of B, and FICc means MIC of C in combination/MIC of C alone. Effects were considered as synergistic if FIC was ≤0.5 for two components mixture and ≤0.75 for three components mixture.
(§2) Staphylococcus aureus strains were inoculated in 5 ml of TSB and incubated O/N at 37° C. Ten μl of the O/N cultures were then inoculated in 90 μl of TSB supplemented with 1% glucose and 1% NaCl (TSB-GN) in the appropriate wells of a 96-well microtiter plate (Sarstedt) to a final volume of 100 μl. The plates were then incubated at 37° C. for 24 h. After the incubation, the presence of the biofilm at the bottom of the wells was assessed visually.
(§3) The BOAT assay was performed as described previously (Gronseth et al., 2017, Int. J. Pediatr. Otorhinolaryngol., Vol. 103, p 58-64) with some modifications. The serial dilutions of the antimicrobials were prepared in challenge plates as follows: 175 μl of TSB were transferred in each row of a 96-well microtiter plate, except for the first row, according to the number of microbial strains to treat. In the first row of the plate, the antimicrobials were diluted to their respective working concentrations in a final volume of 350 μl of TSB. From the first row, 175 μl of the antimicrobial dilutions were then transferred to the second row of the plate and further serially diluted to the bottom of the plate. The same procedure was followed to prepare the controls, except that instead of the antimicrobials an equivalent volume of the respective vehicles were used. The biofilms were allowed to form for 24 h and then washed twice with 100 μl of sterile saline buffer and a total of 150 μl of the antimicrobial and control dilutions were transferred from the challenge plate to the corresponding wells of the biofilm plate. The challenged biofilms were then incubated for an additional 24 h at 37° C. After the challenge period, the antimicrobial dilutions were removed and the biofilms were carefully washed three times with 150 μl of sterile saline buffer. A total of 100 μl of TSB supplemented with 0.025% of triphenyl-tetrazolium chloride (TTC, Sigma) were then added to each well of the plate and further incubated at 37° C. for 5h. The results were then assessed by monitoring the development (or not) of red formazan (red colour), denoting the retention of metabolic activity by bacterial cells (Moussa et al., 2013, J. Mycol., Vol. 2013; Perez et al., 2010, Lett. Appl. Microbiol., Vol. 51, p 331-337). The medium was then removed and 200 μl of an ethanol:acetone (70:30) mixture was added to the wells and incubated O/N in order to extract the red formazan. The amount of extracted dye, reflecting the degree of bacterial cell metabolic activity, was then quantified by spectrophotometric readings at 492 nm.

[1] = test system: S. aureus USA 300 biofilm; assay: as above
Method: as §1, §2, §3

[2] = test system: S. aureus ATTC 10832 biofilm; assay: as above; settings: for MIC50: individual component
Method: as §1, §2, §3

S.a. 3255 biofilm = assay: as above; settings: for MIC50: individual component
Method: as §1, §2, §3

[3] = test system: S. aureus ATTC 29213 biofilm; assay: as above; settings: for MIC50: individual component
Method: as §1, §2, §3

[4] = test system: S. aureus ATTC 33591 biofilm; assay: as above; settings: for MIC50 of the component in combination / MIC50: ATTC 33591, biofilm; for MIC50: individual component
Method: as §1, §2, §3

S. aureus Newman = assay: Planktonic cell growth inhibition assay (MIC50, liquid culture); settings: for MIC50: individual component
Method: (§4) Growth inhibition assays were performed in 96-well microtiter plates as described previously (Chi and Holo, 2018, supra). Briefly, 135 μl of TSB were dispensed in each well of a microtiter plate (according to the number of bacterial strains tested) except in the wells of the first row. The antimicrobials were diluted in TSB to working concentrations in a final volume of 285 μl and dispensed in the wells of the first row. The working concentrations were 100 μg/μl for garvicin KS, 10 μg/μl for micrococcin P1 and 1 mg/ml for penicillin G. From the first row, 150 μl of the antimicrobials were then serially diluted (two-fold dilutions) in a sequential fashion until the last row of the plate. Finally, 15 μl of a fresh O/N culture of each strain were added in the appropriate wells to reach a final volume of 150 μl in each well. The plates were then incubated at 37° C. for 24 h. The growth inhibition was expressed as minimum inhibitory concentration (MIC50), which refers to the minimum concentration of the antimicrobial needed to reduce at least 50% of the microbial growth compared to the untreated control. The MIC50 was assessed by optical density readings at 600 nm (O.D.600).
as §1

S. aureus ATTC 29213 = assay: as above
Method: as §4, §1

S. aureus ATTC 33591 = assay: as above
Method: as §4, §1

S. aureus USA 300 = assay: as above
Method: as §4, §1

[5] = Staphylococcus aureus, read-out: MIC50
[6] = garvicin KS + micrococcin P1 + penicillin G
[7] = Staphylococcus aureus, USA300, individual component, read-out: MIC50

## CC1(C)S[C@@H]2[C@H](NC(=O)Cc3ccccc3)C(=O)N2[C@H]1C(=O)O [Penicillin G]
S. aureus Newman biofilm; [5]
  MIC50: 10000 µg/mL
S. aureus Newman biofilm; [6]
  MIC50 of the component in combination: 2500 µg/mL
S. aureus Newman biofilm; garvicin KS + penicillin G
  MIC50 of the component in combination: 1300 µg/mL
[1]; [7]
  MIC50: > 10000 µg/mL
[1]; [6]
  MIC50 of the component in combination: 10000 µg/mL
[1]; garvicin KS + penicillin G
  MIC50 of the component in combination: >10000 µg/mL
[2]; Staphylococcus aureus, ATTC10832BIOFILM, read-out: MIC50
  MIC50: 10000 µg/mL
[2]; [6]
  MIC50 of the component in combination: 310 µg/mL
[2]; garvicin KS + penicillin G
  MIC50 of the component in combination: 630 µg/mL
S.a. 3255 biofilm; [5]
  MIC50: 10000 µg/mL
S.a. 3255 biofilm; [6]
  MIC50 of the component in combination: 0.63 mg/mL
S.a. 3255 biofilm; garvicin KS + penicillin G
  MIC50 of the component in combination: 0.63 mg/mL
[3]; Staphylococcus aureus, ATTC29213BIOFILM, read-out: MIC50
  MIC50: 10000 µg/mL
[3]; [6]
  MIC50 of the component in combination: 630 µg/mL
[3]; garvicin KS + penicillin G
  MIC50 of the component in combination: 2500 µg/mL
[4]; [6]
  MIC50 of the component in combination: 10000 µg/mL
[4]; garvicin KS + penicillin G
  MIC50 of the component in combination: >10000 µg/mL
[4]; Staphylococcus aureus, ATTC33591BIOFILM, read-out: MIC50
  MIC50: > 10000 µg/mL
S. aureus Newman; [5]
  MIC50: < 7.8 µg/mL
S. aureus Newman; [6]
  MIC50 of the component in combination: <7.8 µg/mL
S. aureus Newman; garvicin KS + penicillin G
  MIC50 of the component in combination: <7.8 µg/mL
S. aureus ATTC 29213; Staphylococcus aureus, ATTC29213, individual component, read-out: MIC50
  MIC50: 130 µg/mL
S. aureus ATTC 29213; [6]
  MIC50 of the component in combination: 31 µg/mL
S. aureus ATTC 29213; garvicin KS + penicillin G
  MIC50 of the component in combination: 130 µg/mL
S. aureus ATTC 33591; Staphylococcus aureus, ATTC33591, individual component, read-out: MIC50
  MIC50: > 1000 µg/mL
S. aureus ATTC 33591; [6]
  MIC50 of the component in combination: 130 µg/mL
S. aureus ATTC 33591; garvicin KS + penicillin G
  MIC50 of the component in combination: 500 µg/mL
S. aureus USA 300; [7]
  MIC50: > 1000 µg/mL
S. aureus USA 300; [6]
  MIC50 of the component in combination: 63 µg/mL
S. aureus USA 300; garvicin KS + penicillin G
  MIC50 of the component in combination: 250 µg/mL

B1: Garvicin KS: three-peptide leaderless bacteriocin (GarA, GarB, GarC; SEQ ID NO:6-8), peptides synthesized (peptide, listed as Lactococcus garvieae)
chain 1: MGAIIKAGAKIVGKGVLGGGASWLGWNVGEKIWK
chain 2: MGAIIKAGAKIIGKGLLGGAAGGATYGGLKKIFG
chain 3: MGAIIKAGAKIVGKGALTGGGVWLAEKLFGGK
S. aureus Newman biofilm; garvicin KS + micrococcin P1
  MIC50 of the component in combination: 1250 µg/mL
S. aureus Newman biofilm; [6]
  MIC50 of the component in combination: 1250 µg/mL
S. aureus Newman biofilm; garvicin KS + penicillin G
  MIC50 of the component in combination: 630 µg/mL
S. aureus Newman biofilm
  MIC50: 1250 µg/mL
[1]; garvicin KS + micrococcin P1
  MIC50 of the component in combination: 5000 µg/mL
[1]; [6]
  MIC50 of the component in combination: 5000 µg/mL
[1]; garvicin KS + penicillin G
  MIC50 of the component in combination: >5000 µg/mL
[1]; individual component
  MIC50: 2500 µg/mL
[2]; garvicin KS + micrococcin P1
  MIC50 of the component in combination: 1250 µg/mL
[2]; [6]
  MIC50 of the component in combination: 160 µg/mL
[2]; garvicin KS + penicillin G
  MIC50 of the component in combination: 310 µg/mL
[2]
  MIC50: 2500 µg/mL
S.a. 3255 biofilm; garvicin KS + micrococcin P1
  MIC50 of the component in combination: 3.1 × 10^−1. mg/ml
S.a. 3255 biofilm; [6]
  MIC50 of the component in combination: 0.31 mg/mL
S.a. 3255 biofilm; garvicin KS + penicillin G
  MIC50 of the component in combination: 0.31 mg/mL
S.a. 3255 biofilm
  MIC50: 1250 µg/mL
[3]; garvicin KS + micrococcin P1
  MIC50 of the component in combination: 1250 µg/mL
[3]; [6]
  MIC50 of the component in combination: 310 µg/mL
[3]; garvicin KS + penicillin G
  MIC50 of the component in combination: 1250 µg/mL
[3]
  MIC50: 1250 µg/mL
[4]; ATCC 33591 biofilm
  MIC increase compared to the planktonic state: over 100 fold
[4]; garvicin KS + micrococcin P1
  MIC50 of the component in combination: >5000 µg/mL
[4]; [6]
  MIC50 of the component in combination: 5000 µg/mL
[4]; garvicin KS + penicillin G
  MIC50 of the component in combination: >5000 µg/mL
[4]
  MIC50: >5000 µg/mL
S. aureus Newman; garvicin KS + micrococcin P1
  MIC50 of the component in combination: 3.13 µg/mL
S. aureus Newman; [6]
  MIC50 of the component in combination: <0.78 µg/mL
S. aureus Newman; garvicin KS + penicillin G
  MIC50 of the component in combination: <0.78 µg/mL
S. aureus Newman
  MIC50: 25 µg/mL
S. aureus ATTC 29213; garvicin KS + micrococcin P1
  MIC50 of the component in combination: 13 µg/mL
S. aureus ATTC 29213; [6]
  MIC50 of the component in combination: 3.1 µg/mL
S. aureus ATTC 29213; garvicin KS + penicillin G
  MIC50 of the component in combination: 13 µg/mL
S. aureus ATTC 29213; individual component
  MIC50: 25 µg/mL
S. aureus ATTC 33591; garvicin KS + micrococcin P1
  MIC50 of the component in combination: 13 µg/mL
S. aureus ATTC 33591; [6]
  MIC50 of the component in combination: 13 µg/mL
S. aureus ATTC 33591; garvicin KS + penicillin G
  MIC50 of the component in combination: 50 µg/mL
S. aureus ATTC 33591; individual component
  MIC50: 50 µg/mL
S. aureus USA 300; garvicin KS + micrococcin P1
  MIC50 of the component in combination: 1.56 µg/mL
S. aureus USA 300; [6]
  MIC50 of the component in combination: 6.3 µg/mL
S. aureus USA 300; garvicin KS + penicillin G
  MIC50 of the component in combination: 25 µg/mL
S. aureus USA 300; individual component
  MIC50: 25 µg/mL
